# The supplement of paper PMC9112550, “Optimization of the antimicrobial peptide Bac7 by deep mutational scanning” (BMC Biology, 2022)
# Tested on: Escherichia coli TOP10
# Assay: shrunken log2 fold change of peptide-encoding DNA abundance (4.5 h post-induction vs induction); higher = less antimicrobial activity (less host growth inhibition)
# Conditions: time post-induction: 4.5 h; library: site-saturation at positions 5, 18, 19, 20
# 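Further: peptides expressed intracellularly from a pBAD plasmid library in pooled LB shake-flask culture, induced with 0.3% L-arabinose, DNA abundance read by NGS, three biological replicates, DESeq2 with apeglm shrinkage.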
row,Sequence,shrunken log2 fold change
1,RRIRVRPPRLPRPRPRPDKNPRP,-0.12
2,RRIRFRPPRLPRPRPRPTPFPRP,0.266
3,RRIRDRPPRLPRPRPRPVNRPRP,-0.131
4,RRIRKRPPRLPRPRPRPFYIPRP,-0.44
5,RRIRKRPPRLPRPRPRPMMNPRP,0.154
6,RRIRKRPPRLPRPRPRPHMEPRP,0.0155
7,RRIRFRPPRLPRPRPRPYYVPRP,-0.14
8,RRIRFRPPRLPRPRPRPFCSPRP,-0.486
9,RRIRRRPPRLPRPRPRPSPIPRP,0.11
10,RRIRARPPRLPRPRPRPKCDPRP,0.39
11,RRIRHRPPRLPRPRPRPGVFPRP,0.0667
12,RRIRVRPPRLPRPRPRPECDPRP,0.247
13,RRIRPRPPRLPRPRPRPGADPRP,0.407
14,RRIRWRPPRLPRPRPRPWHGPRP,-0.368
15,RRIRDRPPRLPRPRPRPNYHPRP,-0.359
16,RRIRHRPPRLPRPRPRPFNAPRP,-0.495
17,RRIRLRPPRLPRPRPRPWQIPRP,0.019
18,RRIRTRPPRLPRPRPRPFVLPRP,-0.296
19,RRIRWRPPRLPRPRPRPWHRPRP,-0.0473
20,RRIRKRPPRLPRPRPRPIANPRP,0.339
21,RRIRVRPPRLPRPRPRPYLKPRP,-0.0795
22,RRIRWRPPRLPRPRPRPHGWPRP,0.213
23,RRIRHRPPRLPRPRPRPTQEPRP,-0.0394
24,RRIRYRPPRLPRPRPRPVTIPRP,-0.0242
25,RRIRIRPPRLPRPRPRPVTHPRP,-0.256

row,Sequence,shrunken log2 fold change
1,RRIRCRPPRLPRPRPRPTQDPRP,0.805
2,RRIRYRPPRLPRPRPRPKCWPRP,0.14
3,RRIRKRPPRLPRPRPRPNLCPRP,0.118
4,RRIRERPPRLPRPRPRPFHEPRP,-0.0823
5,RRIRQRPPRLPRPRPRPLVTPRP,-0.122
6,RRIRQRPPRLPRPRPRPRIHPRP,-0.234
7,RRIRIRPPRLPRPRPRPYCSPRP,-0.0144
8,RRIRPRPPRLPRPRPRPHFMPRP,-0.231
9,RRIRVRPPRLPRPRPRPKCNPRP,-0.181
10,RRIRMRPPRLPRPRPRPGIKPRP,0.274
11,RRIRNRPPRLPRPRPRPHMYPRP,0.0526
12,RRIRVRPPRLPRPRPRPIAMPRP,-0.0565
13,RRIRDRPPRLPRPRPRPDVFPRP,0.07
14,RRIRLRPPRLPRPRPRPRFNPRP,-0.223
15,RRIRWRPPRLPRPRPRPQIFPRP,-0.053
16,RRIRTRPPRLPRPRPRPKFRPRP,-0.204
17,RRIRCRPPRLPRPRPRPAKPPRP,-0.144
18,RRIRYRPPRLPRPRPRPGADPRP,-0.177
19,RRIRDRPPRLPRPRPRPWKNPRP,-0.0182
20,RRIRFRPPRLPRPRPRPVYDPRP,-0.977
21,RRIRMRPPRLPRPRPRPEFTPRP,0.101
22,RRIRSRPPRLPRPRPRPCCTPRP,-0.0345
23,RRIRYRPPRLPRPRPRPHPIPRP,-0.0356
24,RRIRPRPPRLPRPRPRPCYGPRP,0.0701
25,RRIRLRPPRLPRPRPRPQQIPRP,-0.878

row,Sequence,shrunken log2 fold change
1,RRIRKRPPRLPRPRPRPMTPPRP,0.334
2,RRIRRRPPRLPRPRPRPPKTPRP,0.108
3,RRIRCRPPRLPRPRPRPETFPRP,0.07
4,RRIRFRPPRLPRPRPRPRKNPRP,0.266
5,RRIRRRPPRLPRPRPRPETQPRP,0.164
6,RRIRLRPPRLPRPRPRPHKHPRP,-0.53
7,RRIRTRPPRLPRPRPRPVKIPRP,-1.21
8,RRIRMRPPRLPRPRPRPKLLPRP,0.0392
9,RRIRMRPPRLPRPRPRPYSTPRP,-0.137
10,RRIRTRPPRLPRPRPRPDRCPRP,-0.0274
11,RRIRVRPPRLPRPRPRPLGNPRP,-0.424
12,RRIRWRPPRLPRPRPRPGKSPRP,0.0772
13,RRIRPRPPRLPRPRPRPTMDPRP,-0.125
14,RRIRNRPPRLPRPRPRPFETPRP,0.0215
15,RRIRGRPPRLPRPRPRPKMSPRP,0.344
16,RRIRHRPPRLPRPRPRPTMNPRP,-0.173
17,RRIRLRPPRLPRPRPRPAFKPRP,-0.195
18,RRIRRRPPRLPRPRPRPPGVPRP,0.704
19,RRIRDRPPRLPRPRPRPCKCPRP,-0.147
20,RRIRTRPPRLPRPRPRPKHWPRP,0.441
21,RRIRFRPPRLPRPRPRPIKAPRP,-0.128
22,RRIRNRPPRLPRPRPRPSGSPRP,-0.0937
23,RRIRKRPPRLPRPRPRPPLGPRP,0.668
24,RRIRCRPPRLPRPRPRPIPGPRP,-0.000108
25,RRIRKRPPRLPRPRPRPGTMPRP,0.0526
